# Numbering of substitutions follows the chain as printed.
# B1: Ma28H11 (VHH)
# VHH: QVQLVESGGGLVQPGGSLRLSCATSGLTLDHYAIGWFLQAPGKEREGVACVSDDERSLYAPSVMGRFSISRDNAKKTFYLEMNSLKPEDTGVYYCASGPVVPGTLCRIPTVLGYDDWGQGTQVTVSS
# notes: Monomeric VHH; also called M28H11
# B2: Ma16B06 (VHH)
# VHH: QVQLVESGGGLVRTGGSLRLSCAASGSILQIWAMKWYRQAPGLQREWIATIPNSGEPFYASSVEGRFTGSRENEETVYLYLNNLEPEDTAVYYCEVNEGVPVREYWGQGTQVTVSS
# notes: Monomeric VHH; also called VHH Ma16B06
# B3: Ma28D01 (VHH)
# VHH: QVQLVESGGGLVQPGGSLRLSCVVSELGLDYYQIGWFRQAPGKEREGVSCFRSSDEIRYYADSVKGRFTTFRDNAGTTVYLQMNSLKPEDTGVYYCAVAPQTYYHGTWYGECAAAGMDSWGKGTQVTVSS
# notes: Monomeric VHH
# B4: Ma28F04 (VHH)
# VHH: B3 VHH with E26D, S63P, Q125L
# notes: Monomeric VHH
# B5: Re5D06 (VHH)
# VHH: QVQLVESGGGLVQPGGSLRLSCAASGITLDYYAIGWFRQAPGKEREGVSRIRSSDGSTNYADSVKGRFTMSRDNAKNTVYLQMNSLKPEDTAVYYCAYGPLTKYGSSWYWPYEYDYWGQGTQVTVSS
# B6: Re6H06 (VHH)
# VHH: QVQLVESGGGLVQPGGSLRLSCAASGVTLDYYAIGWFRQAPGKEREGVSCTSSSDGSTYYADSVKGRFTISRDNAKNTVYLQMNSLKPEDTGVYYCAVVPQTYYGGKYYSQCTANGMDYWGKGTLVTVSS
# B7: Re32D03 (VHH)
# VHH: QVQLVESGGGLVQPGGSLRLSCAISGITLDYYAVGWFLQAPGKEREGISCMRNWDGRTVYAPSVKGRFTISSDNAKKMVYLEMDNLKSEDTGVYYCAAGPLPPGISCRIPTPLGYDDWGQGTQVTVSS
# B8: Re9B09 (VHH)
# VHH: QVQLVESGGGLVQPGGSLRLSCAASGFTLDYYAIGWFRQAPGKEREGVSRISSSDGSTDYADSVKGRFTISRDNAKNTVYLQMNSLKPEDTAVYYCATVPGTYYSGNWYYTWHPEAVDYWGKGTQVTVSS
# Molecular target: SARS-CoV-2 wild type RBD (wt_RBD-AviHis) (SARS-CoV-2 (Wuhan/Wildtype strain))
# Assay: BLI, biotinylated RBD, mass transport model fit
row,Binder,Kd [nM]
1,B1,≤ 0.01
2,B2,≤ 0.01
3,B3,≤ 0.01
4,B4,≤ 0.01

# Molecular target: SARS-CoV-2 wild type RBD (wt_RBD-AviHis) (SARS-CoV-2 (Wuhan/Wildtype strain))
# Assay: BLI, biotinylated RBD, mass transport model fit
# Remark: another data set of the same source
row,Binder,Kd [nM]
1,B5,≤ 0.01
2,B6,≤ 0.01
3,B7,≤ 0.01
4,B8,0.03

# Molecular target: SARS-CoV-2 spike protein of the original Wuhan strain (SARS-CoV-2 (Wuhan/Wildtype strain), UniProt P0DTC2 14-1273)
# Assay: cell-based or functional assay
row,Binder,Lowest virus neutralizing concentration (pM; IC99) [pM]
1,B1,170
2,B2,1700
3,B3,500
4,B4,500
